# Biological target: Gαi (in HEK cells only expressing Gαs and Gαi, GloSensor assay)
row,"GloSensor assay: decrease of the forskolin-stimulated cAMP bioluminescence signal after a 2-s 365-nm light pulse, HEK cells only expressing Gαs and Gαi [%]",Substance
1,63,parapinopsin from the Japanese lamprey Lethenteron camtschaticum (LcPPO) (receptor)
2,62,trafficking-enhanced eOPN3 derived from Anopheles stephensi (AsOPN3) (receptor)

# — publication PMC11239505
